Holding throughout (assay): micro-array, phage-presented peptide on printed CK
One assay addresses T1, Eotaxin 3 (CCL26) (UniProt Q9Y258 24-94).
T1 construct: Bought chemokine
T1 sequence (looked up): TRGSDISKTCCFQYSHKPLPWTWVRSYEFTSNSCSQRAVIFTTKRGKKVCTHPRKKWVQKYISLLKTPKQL
As for the experimental part:
(§1) (1) Printing: Chemokine (CK) solution (in water) was serially diluted with Print Reagent (GenTel BioSurfaces USA) to final concentrations of 50 μg and 25 μg/ml. BSA/BSA-Biotin control solutions (in water) were diluted with Print Reagent to 100 μg/ml. Amplified stock of M13 phage control (M13KEgIII Cloning Vector, New England Biolabs, Cat.No.E8101S) was stored in Tris Buffered Saline (TBS; pH7.5, 4° C.) and diluted with Print Reagent to the working titre (10^8 pfu/μl). An automated spotting robot (16 pin print tool, 0.4mm head; BioRobotics, UK) was used to print the CK/BSA control/M13 control, 5 repeats per sample (CK 25 μg/ml and 50 μg/ml; BSA 100 μg/ml; M13 20 μl), on PATH Protein Microarray Slides (GenTel, Prod.No.2-1005/-1025) at […], and 50-70% relative humidity. Printed micro-array slides were stored at Room Temperature (RT) or 4° C. for at least 24 h before use.
(§2) (2) Blocking: Block Buffer (500 μl/partition; PATHblock, GenTel, Prod.No.2-1014) was applied to the slide for 1 hour at room temp (RT). After removal of Block Buffer, the slide was air dried for 25 minutes;
(§3) (11) Analysis: Quantitative analysis of micro-array was performed by the SpotReader program of Niles Scientific (USA) and presented as Relative Fluorescence (RF) as a function of CK concentration. Micro-array readout (Cy3 fluorescence) was quantified to determine the relative binding affinities of a CBP for the CKs and by inference, the specificity of the CBP for binding to a CK.

The next assay deals with T2, BCA-1 (CXCL13) (UniProt O43927 23-109).
T2 construct: Bought chemokine
T2 sequence (looked up): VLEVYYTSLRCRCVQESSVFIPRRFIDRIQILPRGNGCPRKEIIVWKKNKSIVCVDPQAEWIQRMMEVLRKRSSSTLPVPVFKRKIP
On the procedure:
as §1, §2, §3

The target in another assay is T3, Eotaxin (CCL11) (UniProt P51671 24-97).
T3 construct: Bought chemokine
On the procedure:
as §1, §2, §3

A further assay concerns the target T4, Exodus-2 (CCL21) (UniProt O00585 24-134).
T4 construct: Bought chemokine
T4 sequence (looked up): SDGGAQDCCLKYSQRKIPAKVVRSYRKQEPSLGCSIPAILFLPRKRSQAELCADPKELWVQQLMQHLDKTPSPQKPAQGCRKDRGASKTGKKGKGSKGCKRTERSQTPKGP
On the procedure: as §1, §2, §3

The target in a further assay is T5, TECK (CCL25) (UniProt O15444 24-150).
T5 construct: Bought chemokine
T5 sequence (looked up): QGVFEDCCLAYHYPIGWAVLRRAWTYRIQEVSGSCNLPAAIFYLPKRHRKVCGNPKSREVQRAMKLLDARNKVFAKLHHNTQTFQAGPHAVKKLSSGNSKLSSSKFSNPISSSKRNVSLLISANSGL
As for the experimental part:
as §1, §2, §3

In the next assay the target is T6, Mig (CXCL9) (UniProt Q07325 23-125).
T6 construct: Bought chemokine
T6 sequence (looked up): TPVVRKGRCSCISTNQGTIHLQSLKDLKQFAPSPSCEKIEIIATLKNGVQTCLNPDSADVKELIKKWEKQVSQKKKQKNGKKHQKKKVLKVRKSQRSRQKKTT
On the procedure: as §1, §2, §3

The next assay addresses T7, I-TAC (CXCL11) (UniProt O14625 22-94).
T7 construct: Bought chemokine; also called I-TACK
T7 sequence (looked up): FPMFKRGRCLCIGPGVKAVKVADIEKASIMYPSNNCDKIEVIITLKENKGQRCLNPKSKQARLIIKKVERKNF
On the procedure:
as §1, §2, §3

For another assay, the target named is T8, RANTES (CCL5) (UniProt P13501 24-91).
T8 construct: Bought chemokine
T8 sequence (looked up): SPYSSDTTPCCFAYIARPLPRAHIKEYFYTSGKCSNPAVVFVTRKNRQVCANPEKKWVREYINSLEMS
On the procedure: as §1, §2, §3

The target in the next assay is T9, Lymphotactin (XCL-1) (UniProt P47992 23-114, limits assumed).
T9 construct: Bought chemokine
T9 sequence (looked up): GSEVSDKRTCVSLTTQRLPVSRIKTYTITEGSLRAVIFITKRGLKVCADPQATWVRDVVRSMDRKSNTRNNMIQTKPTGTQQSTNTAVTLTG
On the procedure: as §1, §2, §3

A further assay deals with T10, SDF-1β (CXCL12) (UniProt P48061 22-93).
T10 construct: Beta isoform of CXCL12; also called SDFβ
On the procedure: as §1, §2, §3

For the next assay, the target named is T11, I-309 (CCL1) (UniProt P22362 23-96, limits assumed).
T11 construct: Bought chemokine
T11 sequence (looked up): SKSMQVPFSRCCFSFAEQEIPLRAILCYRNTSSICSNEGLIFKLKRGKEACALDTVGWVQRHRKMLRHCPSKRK
As for the experimental part:
as §1, §2, §3

A further assay has as its target T12, MDC(69aa) (CCL22) (UniProt O00626 25-93).
T12 construct: Bought chemokine
T12 sequence (looked up): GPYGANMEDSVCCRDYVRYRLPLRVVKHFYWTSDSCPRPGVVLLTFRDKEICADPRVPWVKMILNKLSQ
On the procedure: as §1, §2, §3

Another assay has as its target T13, IL-8 (CXCL8) (UniProt P10145 28-99, limits assumed).
T13 construct: also called IL-8(72aa); IL-8(77aa)
T13 sequence (looked up): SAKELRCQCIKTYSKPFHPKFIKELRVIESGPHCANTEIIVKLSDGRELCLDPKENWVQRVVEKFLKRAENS
On the procedure:
as §1, §2, §3

Another assay has as its target T14, CTAC (CCL27) (UniProt Q9Y4X3 25-112).
T14 construct: Bought chemokine
T14 sequence (looked up): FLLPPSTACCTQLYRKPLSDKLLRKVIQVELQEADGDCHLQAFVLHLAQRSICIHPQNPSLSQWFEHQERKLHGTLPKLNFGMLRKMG
As for the experimental part: as §1, §2, §3

The next assay has as its target T15, MCP-4 (CCL13) (UniProt Q99616 24-98).
T15 construct: Bought chemokine
As for the experimental part:
as §1, §2, §3

Another assay addresses T16, Eotaxin 2 (CCL24) (UniProt O00175 27-104, limits assumed).
T16 construct: Bought chemokine
T16 sequence (looked up): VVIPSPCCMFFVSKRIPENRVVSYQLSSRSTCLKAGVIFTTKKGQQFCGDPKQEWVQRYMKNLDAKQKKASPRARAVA
As for the experimental part:
as §1, §2, §3

In the next assay the target is T17, MCP-1 (CCL2) (UniProt P13500 24-99).
T17 construct: Bought chemokine
As for the experimental part: as §1, §2, §3

In the next assay the target is T18, SDF-1α (CXCL12) (UniProt P48061-2 22-89).
T18 construct: Alpha isoform of CXCL12; also called SDFα
On the procedure:
as §1, §2, §3

The target of a further assay is T19, MCP-2 (CCL8) (UniProt P80075 24-99).
T19 construct: Bought chemokine
T19 sequence (looked up): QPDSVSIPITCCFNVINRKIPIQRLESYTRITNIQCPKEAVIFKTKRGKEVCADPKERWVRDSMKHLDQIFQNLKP
On the procedure:
as §1, §2, §3

The next assay concerns the target T20, GRO-β (CXCL2) (UniProt P19875 35-107).
T20 construct: Bought chemokine
T20 sequence (looked up): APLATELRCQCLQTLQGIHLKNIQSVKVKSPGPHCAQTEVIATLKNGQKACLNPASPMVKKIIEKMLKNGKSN
On the procedure:
as §1, §2, §3

T17 sequence (P13500 24-99 limits assumed): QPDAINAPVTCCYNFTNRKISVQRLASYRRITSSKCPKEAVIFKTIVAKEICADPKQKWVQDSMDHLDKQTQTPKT
T3 sequence (P51671 24-97 limits assumed): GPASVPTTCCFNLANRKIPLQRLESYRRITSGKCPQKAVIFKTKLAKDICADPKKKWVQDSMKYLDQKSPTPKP
T15 sequence (Q99616 24-98 limits assumed): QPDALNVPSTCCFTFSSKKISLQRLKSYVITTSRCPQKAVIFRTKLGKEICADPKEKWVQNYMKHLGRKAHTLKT
T18 sequence (P48061 22-89 limits assumed): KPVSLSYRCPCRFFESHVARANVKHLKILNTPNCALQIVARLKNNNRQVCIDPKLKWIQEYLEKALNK
T10 sequence (P48061 22-93 limits assumed): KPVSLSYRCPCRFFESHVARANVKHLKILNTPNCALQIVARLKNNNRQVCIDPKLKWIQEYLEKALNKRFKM

B1: Phage-Presented Peptide 30 (Ph-p30) (peptide)
peptide: DYDYGAPC
Regarding B1, the “Relative Fluorescence Units (RFU)” value with Eotaxin 3 (CCL26), with Eotaxin (CCL11), in the assay with Mig (CXCL9), with I-TAC (CXCL11), with RANTES (CCL5) and in the assay with I-309 (CCL1) was over 15000 RFU throughout. Besides, the “Relative Fluorescence Units (RFU)” value in the assay with IL-8 (CXCL8), with MCP-4 (CCL13), with Eotaxin 2 (CCL24), in the assay with MCP-1 (CCL2) and with MCP-2 (CCL8) was over 15000 RFU in each case. The binding result in the assay with BCA-1 (CXCL13), in the assay with Exodus-2 (CCL21), in the assay with TECK (CCL25), with Lymphotactin (XCL-1), with SDF-1β (CXCL12) and with MDC(69aa) (CCL22) was “binds” each time. Further, the binding result with CTAC (CCL27) and with SDF-1α (CXCL12) was “binds” throughout.

B2: Phage-Presented Peptide 16 (Ph-p16) (peptide)
peptide: HHTCSLHFP
For B2, the binding result with Eotaxin 3 (CCL26), in the assay with BCA-1 (CXCL13), with Eotaxin (CCL11), with GRO-β (CXCL2), with TECK (CCL25) and in the assay with Mig (CXCL9) was “binds” in each case. Also, the binding result with I-TAC (CXCL11), with Lymphotactin (XCL-1), with I-309 (CCL1), in the assay with MDC(69aa) (CCL22), with Eotaxin 2 (CCL24) and with MCP-1 (CCL2) was “binds” throughout. The binding result with MCP-2 (CCL8) is given as “binds”. Besides, the “Relative Fluorescence Units (RFU)” value with RANTES (CCL5) and with MCP-4 (CCL13) was over 15000 RFU in each case.

Values taken from patent US20100227824A1 (SYMTHERA CANADA, published 2010).
